Reference: article PMC8156467, “Disruption of YY1-EZH2 Interaction Using Synthetic Peptides Inhibits Breast Cancer Development” (Cancers, 2021)

How the values were obtained:
[1] = target: enhancer of zeste homolog 2 (EZH2), endogenous (human (endogenous in MDA-MB-231)) (UniProt Q15910)
[2] = target: Yin Yang 1 (YY1), endogenous (human (endogenous in MDA-MB-231)) (UniProt P25490)
Yin Yang 1 (YY1), endogenous (human (endogenous in MDA-MB-231)), sequence (P25490 whole entry): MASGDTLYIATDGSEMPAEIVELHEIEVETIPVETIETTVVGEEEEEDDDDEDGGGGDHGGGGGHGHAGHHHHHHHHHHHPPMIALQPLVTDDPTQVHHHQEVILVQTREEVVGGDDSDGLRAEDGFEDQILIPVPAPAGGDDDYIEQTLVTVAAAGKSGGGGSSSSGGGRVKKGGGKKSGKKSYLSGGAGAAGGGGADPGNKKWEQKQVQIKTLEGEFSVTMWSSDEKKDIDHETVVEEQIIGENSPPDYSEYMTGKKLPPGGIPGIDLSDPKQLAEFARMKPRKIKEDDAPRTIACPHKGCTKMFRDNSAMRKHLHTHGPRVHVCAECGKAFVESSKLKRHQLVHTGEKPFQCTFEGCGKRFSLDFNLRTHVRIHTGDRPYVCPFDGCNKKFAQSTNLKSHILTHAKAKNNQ

synthetic FITC-TAT-3×Glycine-OPB peptide, sequence (P25490 whole entry): as above
enhancer of zeste homolog 2 (EZH2), endogenous (human (endogenous in MDA-MB-231)), sequence (Q15910 whole entry): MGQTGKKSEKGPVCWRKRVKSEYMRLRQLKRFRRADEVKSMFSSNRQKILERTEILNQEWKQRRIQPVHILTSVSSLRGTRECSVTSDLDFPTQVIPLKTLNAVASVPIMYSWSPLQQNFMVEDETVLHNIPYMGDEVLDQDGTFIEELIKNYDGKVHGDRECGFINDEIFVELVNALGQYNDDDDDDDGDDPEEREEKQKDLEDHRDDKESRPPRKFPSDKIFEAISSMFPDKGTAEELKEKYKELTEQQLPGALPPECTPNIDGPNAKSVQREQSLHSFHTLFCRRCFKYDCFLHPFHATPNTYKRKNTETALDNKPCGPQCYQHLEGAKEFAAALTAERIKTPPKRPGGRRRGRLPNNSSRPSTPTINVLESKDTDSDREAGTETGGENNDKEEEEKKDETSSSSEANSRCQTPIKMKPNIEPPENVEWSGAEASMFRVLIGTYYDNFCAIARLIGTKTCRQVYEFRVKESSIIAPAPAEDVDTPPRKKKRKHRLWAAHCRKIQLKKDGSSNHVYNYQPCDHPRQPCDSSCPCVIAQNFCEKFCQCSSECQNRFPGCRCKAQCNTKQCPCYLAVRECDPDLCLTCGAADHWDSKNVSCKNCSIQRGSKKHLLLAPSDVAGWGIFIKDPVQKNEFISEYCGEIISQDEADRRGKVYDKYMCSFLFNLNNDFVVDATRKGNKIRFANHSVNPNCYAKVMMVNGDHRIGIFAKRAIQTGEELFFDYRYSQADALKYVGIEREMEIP

Row | Substance | IC50 of cell viability (WST-1, 48 h) in MCF-7, MDA-MB-231 and MDA-MB-453 breast cancer cells; the peptide blocks YY1-EZH2 (m1 with m2) [1] [µM] | IC50 of cell viability (WST-1, 48 h) in MCF-7, MDA-MB-231 and MDA-MB-453 breast cancer cells; the peptide blocks YY1-EZH2 (m1 with m2) [2] [µM]
1 | synthetic FITC-TAT-3×Glycine-OPB peptide (from UniProt P25490 201-226) | 20 | 
2 | synthetic FITC-TAT-3×Glycine-YPB peptide (from UniProt Q15910-2 493-519) |  | 20
